Tested on: MS2 coat protein
Experiment: apparent KD of MS2 coat protein; designed switch direction (-1 OFF switch, 1 ON switch): -1; higher = weaker reporter binding
In short: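 Apparent KD, taken as the median over clusters for each design, was obtained by curve-fitting normalised cluster fluorescence. Designed RNA switches had been transcribed on Illumina chips by stalled E. coli RNA polymerase and titrated with SNAP-549-labelled MS2 coat protein, doubling from 0.7 or 1.5 nM to 3 µM.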

[1] = Eterna round: R95, input ligand: FMN 200 uM
[2] = Eterna round: R95, input ligand: microRNA oligo, concentration not stated
[3] = Eterna round: R95, input ligand: none
[4] = input ligand: microRNA oligo, concentration not stated

Sequence | apparent KD of MS2 coat protein (input ligand: FMN 200 uM) [nM] | apparent KD of MS2 coat protein (input ligand: none) [nM] | apparent KD of MS2 coat protein [1] [nM] | apparent KD of MS2 coat protein [2] [nM] | apparent KD of MS2 coat protein [3] [nM] | apparent KD of MS2 coat protein [4] [nM]
GAGUCACAUGAGGAUCACCCAUGUGAGGAUAUCAUGCUUCGUAGUAAACUACGAAGUGUGAGAAGGCACAAUGG [Omei Ex1 C8] (Eterna round: R97, puzzle: Exclusion 1) | 126 | 68.6 | – | – | – | –
CUCUUGUUAGGAUAUCAAACCAGCGGCGGAACCGCUGGUAGUGAGAAGGGACAUGAGGAUCACCCAUGUAAGAA [Bige] (puzzle: Exclusion 4) | – | – | 108 | 51.1 | 61.3 | –
UGAGUGCUGCGAGGAUAUACAUGAGGAUCACCCAUGUAAUCGUGUGAGGCAAAGCCUCACACGAAGUAGAAGGCGCAGUACUCA [Mat - Exclusion NG 2 - Mod of JL - D18] (Eterna round: R96, puzzle: Exclusion NG 2) | 15.7 | 18.6 | – | – | – | 12.4
CUAGCGAAUGUAGGAUAUCGGACUGUUUCAGUCUGAGAAGGACAUGAGGAUCACCCAUGUAUUGCUACGUGAGUAGCUCGCUAG [JL ENG1 3.92] (Eterna round: R96, puzzle: Exclusion NG 1) | 32.4 | 18 | – | – | – | 13.7
AAGAAACAUGAGGAUCACCCAUGUGAGGAUAUGAUGCGAAUUAUGUAUGUAGUAAGCAUCAGAAGGCACAAAGG [Mat - Mod Mix D39] (puzzle: Exclusion 1) | – | – | – | 142 | – | –
GCUUGUCGAGGAUAUGCAUACACUGGAUACAGUGGAAGGUCACAUGAGGAUCACCCAUGUAGAAGGCGACGAGC [EX2 #39] (Eterna round: R97, puzzle: Exclusion 2) | 121 | 41.8 | – | – | – | –
CCGCUACAUGAGGAUCACCCAUGUCAGGAUAUCGUACGUUCGUCGAAAGACGAUCGUACGAGAAGGGUGUGCGG [Eli x1 4.37] (Eterna round: R97, puzzle: Exclusion 1) | 169 | 155 | – | – | – | –
UAUUAGCAAGCGAGAUCCCACAUGAGGAUCACCCAUGUGCUCGUCUUAAGCCCAGAAUUACUGGGCGCUCGUCUUAU [Winner reversed engineered 20] (Eterna round: R97, puzzle: Sensor, turn-off variant 1) | 13.1 | 12.7 | – | – | – | –
GAGAAGGUAGGAUAUACGAAUAAAUAGGGUAGUAAUAAUACACAUGAGGAUCACCCAUGUAGAAGGACCAAUAG [Mat - Exclusion 2 - Mod of my Tesla design - D40] (puzzle: Exclusion 2) | – | – | 42.5 | 20.8 | 24.9 | –
GCACUGACAGGAUAUACAUGAGGAUCACCCAUGUGACCCUUAAAGUACUCGCGUACAAGUAGAAGGGUCUGUGC [Omei Ex3 Model Bachelor's Dilema v30] (Eterna round: R97, puzzle: Exclusion 3) | 398 | 66.7 | – | – | – | –
CUCUUGUGAGGAUAUCUCCCAGCGAUUAAUUGGGCAGUCUGAGAGAAGGUACAUGAGGAUCACCCAUGUGAUAG [Eternabot (L1) Solution 73] (Eterna round: R97, puzzle: Exclusion 4) | 69.3 | 61.7 | – | – | – | –
GGUGGGCUAGGAUAUGCUUUGGGAAAGCAUUCCUUCGAUAAACUUGAGGAUCACCCAAGUAGAAGGAGCUUGCC [salish99_ex2_r4_020] (Eterna round: R97, puzzle: Exclusion 2) | 16.4 | 13.4 | – | – | – | –
GGUCGAGAAGUUAGGAUAUCGAUAAAACAGAAAUUUGAGAAGGGACUUGAGGAUCACCCAAGUUAUUGGUUCUC [Anaranle] (Eterna round: R97, puzzle: Brourd's mod of Exclusion 4) | 17.8 | 19.6 | – | – | – | –
AUUGAUGUUGAGGAUAUGCUUUUAUUUGUUCUUGCAGAAGGCGAUACAUGAGGAUCACCCAUGUUCAUGGAAGU [JR_E6_Sub090] (puzzle: Exclusion 6) | – | – | – | 39.7 | – | –
UUUAAGUCAGGAUAUACAUGAGGAUCACCCAUGUAAAAUUUUAAUUUAAUUUUAAGGUGUAGAAGGGACAAUUU [Ex3 #3] (Eterna round: R97, puzzle: Exclusion 3) | 29.5 | 34.9 | – | – | – | –
UCAUACGAUGAGGAUAUCUCCGUUAAAGUAUGUAGAGAAGGCGUUACAUGAGGAUCACCCAUGUUUGUGGGCAG [Ex-6 Malc#9] (puzzle: Exclusion 6) | – | – | 223 | 217 | 190 | –
CCUCCACAGUAGGAUAUCAUCAAACUAUUGUGAUGAGAAGGACUGACAUGAGGAUCACCCAUGUUAACGUGAUG [Mod of Brourd 7 - Jieux - Exclusion 6] (Eterna round: R97, puzzle: Exclusion 6) | 25.3 | 22.9 | – | – | – | –

Sequence | apparent KD of MS2 coat protein (input ligand: FMN 200 uM) [nM] | apparent KD of MS2 coat protein (input ligand: none) [nM] | apparent KD of MS2 coat protein [1] [nM] | apparent KD of MS2 coat protein [2] [nM] | apparent KD of MS2 coat protein [3] [nM] | apparent KD of MS2 coat protein [4] [nM]
UAAGUUUACCGAGGAUAUGGUCAAUAAUUAUGACCAGAAGGCGGACUCAACAUGAGGAUCACCCAUGUAUAAAGGGUAAUUGGU [JR_ExcNG1_Sub047] (Eterna round: R96, puzzle: Exclusion NG 1) | 154 | 90.8 | – | – | – | 110
CCCAGUUAGGAAGGAUAUUGUACAUGAGGAUCACCCAUGUAAUAAAUGAGGAUCUCGGGUGUCUACAAGAAGGUCCGGAUAGGC [Ostracism 12 - Jieux - Exclusion NG 2] (Eterna round: R96, puzzle: Exclusion NG 2) | 104 | 46.4 | – | – | – | 38.7
UAGAUGUGAGGAUAUACAUGAAUGCAGGAUCGUGUGGUGCUACAUGAGGAUCACCCAUGUAGAAGGCACGUCUU [Mod 9 R3 JL-ex2-2.29 - Jieux - Exclusion 2] (Eterna round: R97, puzzle: Exclusion 2) | 20 | 13.9 | – | – | – | –
GGUUGACAUGAGGAUCACCCAUGUGAGGAUAUGCGAGAGAAAAAAGUGAGGAAGUAAUGCAGAAGGCGCUGUCG [salish99-ex1_r3_017] (puzzle: Exclusion 1) | – | – | 132 | 86.4 | 210 | –
AGCGUGGAGACAGGAUAUGAGAAUAGAUAGAAAUCAGAAGGGUCACAUGAGGAUCACCCAUGUAAAGUCUUGAGGAUGAGUGAU [Prohibition 3 - Jieux - Exclusion NG 1] (Eterna round: R96, puzzle: Exclusion NG 1) | – | – | – | – | – | 70.4
AUGCUCCGUGUAGGAUAUCGCCGCACCACCCGGCGAGAAGGACAUGAGGAUCACCCAUGUAUGUUAUUAUCACGUGUGGCGCGC [Design 42] (Eterna round: R96, puzzle: Exclusion NG 1) | 17.2 | 13.6 | – | – | – | 12.3
UUAAACGCAGGAUAUACAUUUUUUUUAUUAUCCUCAUAAAUACAUGAGGAUCACCCAUGUAGAAGGGCGAAAUU [Mat - Exclusion 2 - Mod of Hog - D87] (puzzle: Exclusion 2) | – | – | – | 144 | – | –
GUUGGUUGAGAGGAUAUUGUACGCGAUGAGUGUCGAGAAGGUUCAACAUGAGGAUCACCCAUGUGGCUGAGUAA [Eternabot (L1) Solution 40] (Eterna round: R97, puzzle: Exclusion 6) | 442 | 32.1 | – | – | – | –
UUAAUUAAUUAAGGCUGAAGAUCACAUGAGGAUCACCCAUGUAAGGAUAUCAGCUCGAUUAGAGCUGAGAAGGUACAUGCAGCC [ExNG3/18-B1] (Eterna round: R96, puzzle: Exclusion NG 3) | 53.9 | 319 | – | – | – | 377
UAAAAUAAACAUGAGGAUCACCCAUGUGAAUGGACUCCUCGGGAGGAUAUUCUGCUUAAAGGUCAGGAGAAGGCCCAUUGCAAU [Isinza] (Eterna round: R96, puzzle: Exclusion NG 3) | 545 | 197 | – | – | – | 242
CAUUGUUAUCGAGGAUAUCGUAUUGAGAUUCUACGAGAAGGCGGACUAAACAUGAGGAUCACCCAUGUGGGACGGAUGCUUGGG [Ex NG1 #31] (Eterna round: R96, puzzle: Exclusion NG 1) | 30.7 | 28.1 | – | – | – | 25.8
UAUUAGCAAGUAAGAUCCCACAUGAGGAUCACCCAUGUGCUCGUCAUAUCACGUACUGUGAGGAAACUCACGGUACG [Sensor-V1 #85] (Eterna round: R97, puzzle: Sensor, turn-off variant 1) | 114 | 128 | – | – | – | –
CUAUCAAGCAAGGAUAUGCAAAUAAUUAUUUAUGCAGAAGGUGCAACAUGAGGAUCACCCAUGUUUCUGGGUUU [JR_E6_Sub048] (puzzle: Exclusion 6) | – | – | – | 44.9 | – | –
ACGUGGGCCCUUAGUGAACAUGAGGAUCACCCAUGUAACCACAAGGAUAUCUACGCCAGCACGCGAGAGAAGGUGUGAAAUAAU [Maorbetiza] (Eterna round: R96, puzzle: Exclusion NG 3) | 132 | 44.8 | – | – | – | 35.4
UCAUGUAUGUAGGAUAUCGAUGUCUUCGGACAUCGAGAAGGACGUACAUGAGGAUCACCCAUGUAACUUGCAUG [Exclusion 6 - B - 11:b] (puzzle: Exclusion 6) | – | – | – | 14.8 | – | –
AACGUACAGCAAAGCUGUACGCGUACAUGAGGAUCACCCAUGUAGGAUAUGGUAGGCAAAGCUUACUAGAAGGAUAGAGUGAUC [Mat - Exclusion NG 3 - Mod of JL - D77] (Eterna round: R96, puzzle: Exclusion NG 3) | 497 | 333 | – | – | – | 358
CGAUGACCGGUGAGGAUAUCGUGUUCGAAAGAACGUGAGAAGGCACAUGAGGAUCACCCAUGUGAUCCUCAUCG [Omei Ex4B A33] (Eterna round: R97, puzzle: Brourd's mod of Exclusion 4) | 25.9 | 18.2 | – | – | – | –
